# Assay results as given in the Human Domainome abundance scans (Beltran et al. 2025).
# ± gives the uncertainty stated by the source.
# B1: POU domain, class 2, transcription factor 3, residues 186 to 260; numbered along this chain, Q9UKI9 (parent)
# chain: SDLEELEKFAKTFKQRRIKLGFTQGDVGLAMGKLYGNDFSQTTISRFEALNLSFKNMCKLKPLLEKWLNDAESSP
# Variants of: B1
# Assay: abundance fitness (aPCA) (normalised: wild type 0, dead -1); higher = more abundant; growth selection in yeast, the domain comes from the species named
# Settings: Homo sapiens
row,Variant,abundance fitness
1,SDLEELEKFAKTFKQRRIKLGFTQGDVGLAMGKLYGNDFSQTTISRFEALNLSFKDMCKLKPLLEKWLNDAESSP,0.008 ± 0.051
2,SDLEELEKFAKTFKQRRIKLGFTQGDVGLAMGKLYGNDFSQTTISRFEALNLSFKEMCKLKPLLEKWLNDAESSP,-0.001 ± 0.039
3,SDLEELEKFAKTFKQRRIKLGFTQGDVGLAMGKLYGNDFSQTTISRFEALNLSFKFMCKLKPLLEKWLNDAESSP,-0.058 ± 0.065
4,SDLEELEKFAKTFKQRRIKLGFTQGDVGLAMGKLYGNDFSQTTISRFEALNLSFKGMCKLKPLLEKWLNDAESSP,-0.05 ± 0.029
5,SDLEELEKFAKTFKQRRIKLGFTQGDVGLAMGKLYGNDFSQTTISRFEALNLSFKHMCKLKPLLEKWLNDAESSP,0.014 ± 0.057
6,SDLEELEKFAKTFKQRRIKLGFTQGDVGLAMGKLYGNDFSQTTISRFEALNLSFKIMCKLKPLLEKWLNDAESSP,-0.034 ± 0.082
7,SDLEELEKFAKTFKQRRIKLGFTQGDVGLAMGKLYGNDFSQTTISRFEALNLSFKKMCKLKPLLEKWLNDAESSP,-0.024 ± 0.045
8,SDLEELEKFAKTFKQRRIKLGFTQGDVGLAMGKLYGNDFSQTTISRFEALNLSFKLMCKLKPLLEKWLNDAESSP,-0.008 ± 0.033
9,SDLEELEKFAKTFKQRRIKLGFTQGDVGLAMGKLYGNDFSQTTISRFEALNLSFKMMCKLKPLLEKWLNDAESSP,0.045 ± 0.047
10,SDLEELEKFAKTFKQRRIKLGFTQGDVGLAMGKLYGNDFSQTTISRFEALNLSFKPMCKLKPLLEKWLNDAESSP,-0.206 ± 0.054
11,SDLEELEKFAKTFKQRRIKLGFTQGDVGLAMGKLYGNDFSQTTISRFEALNLSFKQMCKLKPLLEKWLNDAESSP,0.046 ± 0.059
12,SDLEELEKFAKTFKQRRIKLGFTQGDVGLAMGKLYGNDFSQTTISRFEALNLSFKRMCKLKPLLEKWLNDAESSP,0.009 ± 0.028
13,SDLEELEKFAKTFKQRRIKLGFTQGDVGLAMGKLYGNDFSQTTISRFEALNLSFKSMCKLKPLLEKWLNDAESSP,-0.035 ± 0.036
14,SDLEELEKFAKTFKQRRIKLGFTQGDVGLAMGKLYGNDFSQTTISRFEALNLSFKTMCKLKPLLEKWLNDAESSP,0.093 ± 0.048
15,SDLEELEKFAKTFKQRRIKLGFTQGDVGLAMGKLYGNDFSQTTISRFEALNLSFKVMCKLKPLLEKWLNDAESSP,-0.082 ± 0.033
16,SDLEELEKFAKTFKQRRIKLGFTQGDVGLAMGKLYGNDFSQTTISRFEALNLSFKWMCKLKPLLEKWLNDAESSP,0.014 ± 0.038
17,SDLEELEKFAKTFKQRRIKLGFTQGDVGLAMGKLYGNDFSQTTISRFEALNLSFKYMCKLKPLLEKWLNDAESSP,-0.022 ± 0.052
18,SDLEELEKFAKTFKQRRIKLGFTQGDVGLAMGKLYGNDFSQTTISRFEALNLSFKNACKLKPLLEKWLNDAESSP,-0.024 ± 0.036

row,Variant,abundance fitness
1,SDLEELEKFAKTFKQRRIKLGFTQGDVGLAMGKLYGNDFSQTTISRFEALNLSFKNCCKLKPLLEKWLNDAESSP,-0.166 ± 0.058
2,SDLEELEKFAKTFKQRRIKLGFTQGDVGLAMGKLYGNDFSQTTISRFEALNLSFKNDCKLKPLLEKWLNDAESSP,-0.451 ± 0.11
3,SDLEELEKFAKTFKQRRIKLGFTQGDVGLAMGKLYGNDFSQTTISRFEALNLSFKNECKLKPLLEKWLNDAESSP,-0.814 ± 0.09
4,SDLEELEKFAKTFKQRRIKLGFTQGDVGLAMGKLYGNDFSQTTISRFEALNLSFKNFCKLKPLLEKWLNDAESSP,-0.222 ± 0.14
5,SDLEELEKFAKTFKQRRIKLGFTQGDVGLAMGKLYGNDFSQTTISRFEALNLSFKNGCKLKPLLEKWLNDAESSP,-0.172 ± 0.032
6,SDLEELEKFAKTFKQRRIKLGFTQGDVGLAMGKLYGNDFSQTTISRFEALNLSFKNHCKLKPLLEKWLNDAESSP,-0.811 ± 0.29
7,SDLEELEKFAKTFKQRRIKLGFTQGDVGLAMGKLYGNDFSQTTISRFEALNLSFKNICKLKPLLEKWLNDAESSP,-0.305 ± 0.097
8,SDLEELEKFAKTFKQRRIKLGFTQGDVGLAMGKLYGNDFSQTTISRFEALNLSFKNKCKLKPLLEKWLNDAESSP,-0.396 ± 0.064
9,SDLEELEKFAKTFKQRRIKLGFTQGDVGLAMGKLYGNDFSQTTISRFEALNLSFKNLCKLKPLLEKWLNDAESSP,-0.021 ± 0.033
10,SDLEELEKFAKTFKQRRIKLGFTQGDVGLAMGKLYGNDFSQTTISRFEALNLSFKNNCKLKPLLEKWLNDAESSP,-0.167 ± 0.095
11,SDLEELEKFAKTFKQRRIKLGFTQGDVGLAMGKLYGNDFSQTTISRFEALNLSFKNPCKLKPLLEKWLNDAESSP,-0.8 ± 0.12
12,SDLEELEKFAKTFKQRRIKLGFTQGDVGLAMGKLYGNDFSQTTISRFEALNLSFKNQCKLKPLLEKWLNDAESSP,-0.318 ± 0.077
13,SDLEELEKFAKTFKQRRIKLGFTQGDVGLAMGKLYGNDFSQTTISRFEALNLSFKNRCKLKPLLEKWLNDAESSP,-0.608 ± 0.044
14,SDLEELEKFAKTFKQRRIKLGFTQGDVGLAMGKLYGNDFSQTTISRFEALNLSFKNSCKLKPLLEKWLNDAESSP,-0.02 ± 0.047
15,SDLEELEKFAKTFKQRRIKLGFTQGDVGLAMGKLYGNDFSQTTISRFEALNLSFKNTCKLKPLLEKWLNDAESSP,-0.25 ± 0.042
16,SDLEELEKFAKTFKQRRIKLGFTQGDVGLAMGKLYGNDFSQTTISRFEALNLSFKNVCKLKPLLEKWLNDAESSP,-0.202 ± 0.034
17,SDLEELEKFAKTFKQRRIKLGFTQGDVGLAMGKLYGNDFSQTTISRFEALNLSFKNWCKLKPLLEKWLNDAESSP,-0.27 ± 0.043
18,SDLEELEKFAKTFKQRRIKLGFTQGDVGLAMGKLYGNDFSQTTISRFEALNLSFKNYCKLKPLLEKWLNDAESSP,-0.496 ± 0.12
